According to patent US7041458B2, “Methods and reagents for determining protein S” (priority 1996, dated 2006):

Tests used:
[1] = biological target: T1, free protein S (Homo sapiens, UniProt P07225); assay: Addition of C4BP to human plasma, free protein S measured with the assay of Example 2; format: binding; settings: two-fold molar excess of C4BP compared to free protein S, 1 hour at 37° C.
T1 construct: from tissue; host or cells: human plasma
T1 sequence (P07225 42-676): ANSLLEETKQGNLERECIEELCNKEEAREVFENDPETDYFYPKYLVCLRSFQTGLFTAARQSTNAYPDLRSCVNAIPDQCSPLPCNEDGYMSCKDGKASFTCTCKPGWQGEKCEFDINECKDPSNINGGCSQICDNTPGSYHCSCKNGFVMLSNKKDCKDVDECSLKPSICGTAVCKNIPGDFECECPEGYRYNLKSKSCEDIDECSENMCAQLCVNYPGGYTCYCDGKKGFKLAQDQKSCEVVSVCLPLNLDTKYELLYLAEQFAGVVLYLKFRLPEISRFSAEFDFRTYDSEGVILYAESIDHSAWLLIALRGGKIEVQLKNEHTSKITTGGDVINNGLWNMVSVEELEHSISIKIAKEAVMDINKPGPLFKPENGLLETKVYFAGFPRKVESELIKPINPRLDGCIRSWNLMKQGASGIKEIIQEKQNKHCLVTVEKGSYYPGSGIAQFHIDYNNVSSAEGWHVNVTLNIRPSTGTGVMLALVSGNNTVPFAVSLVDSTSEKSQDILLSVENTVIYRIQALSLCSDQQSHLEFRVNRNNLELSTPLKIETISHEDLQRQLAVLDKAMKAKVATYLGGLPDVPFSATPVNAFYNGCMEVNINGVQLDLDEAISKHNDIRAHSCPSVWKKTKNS
Description: Assay procedure: Aliquots (50 μl) of the sample to be analyzed (for patient plasma usually 1:100 dilutions of plasma, the buffer for dilution being TBS containing 1% BSA, 2 mM calciumchloride and 1 mM benzamidine) were added to the wells of C4BP-microtiter plates and incubated at room temperature for 30 minutes. The wells were then washed with TBS-wash-ing buffer and biotinylated monoclonal antibody HPS54 (diluted 1:1000, corresponding to about 0.1–1 μg/ml, in TBS containing 1% BSA, 2 mM calcium chloride) was added. Unbound HPS54 was washed away with 3×TBS-washing buffer. Peroxidase-conjugated streptavidine (from Dakopatts AS and prepared according to the manufacturers instructions and diluted 1:2500) (50 μl/well) was added and incubated 15 minutes at room temperature before unbound complexes were washed away with 3×TBS-washing buffer. Aliquots (100 μl/well) of the peroxidase substrate OPD (1,2-ortho-phenylene diamine in the form of 2 mg tablets from Dakopatts A/S) at 1.5 mg/ml in 0.1 M citric acid-phosphate buffer, pH 5.0 (prepared according to instructions from Dakopatts) was added together with H2O2 (0.015%). After exactly 5 minutes, the reaction was stopped by 100 μl/well of 1 M H2SO4 and the absorbance was measured at 490 nm.
To test the specificity of the assay for free protein S, two different experiments were performed. […]

[2] = biological target: T2, protein S (Homo sapiens, UniProt P07225); assay: Binding of protein S to the binding site on C4BPβ in the presence of physiological calcium
T2 sequence (P07225 42-676): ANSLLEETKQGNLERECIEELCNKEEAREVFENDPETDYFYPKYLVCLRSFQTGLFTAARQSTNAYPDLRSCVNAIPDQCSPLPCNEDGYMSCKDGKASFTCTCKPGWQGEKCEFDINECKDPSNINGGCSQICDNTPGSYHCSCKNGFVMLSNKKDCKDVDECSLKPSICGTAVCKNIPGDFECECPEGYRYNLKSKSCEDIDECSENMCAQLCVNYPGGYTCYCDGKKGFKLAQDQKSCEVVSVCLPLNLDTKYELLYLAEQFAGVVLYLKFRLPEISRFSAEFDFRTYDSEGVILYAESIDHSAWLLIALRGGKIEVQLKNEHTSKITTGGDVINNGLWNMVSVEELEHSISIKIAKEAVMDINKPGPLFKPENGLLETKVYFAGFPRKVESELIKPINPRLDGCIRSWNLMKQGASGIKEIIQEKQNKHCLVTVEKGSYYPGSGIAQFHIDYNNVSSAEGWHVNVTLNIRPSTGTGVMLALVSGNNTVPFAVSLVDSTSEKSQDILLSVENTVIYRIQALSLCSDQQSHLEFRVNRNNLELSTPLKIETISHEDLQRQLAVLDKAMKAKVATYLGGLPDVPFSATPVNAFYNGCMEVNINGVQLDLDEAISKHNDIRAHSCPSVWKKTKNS
Description: Even though it is possible to design C4BP-like molecules which could be very efficient as catching ligands in assays for free protein S, suitable embodiments of the invention are based on use of the entire C4BP molecule or, rather, C4BP species comprising the β-chain, i.e. C4BPβ, as ligands in such assays. Since the binding site on C4BPβ binds protein S with very high affinity (KD=0.1 nM) in the presence of physiological calcium concentrations, the association rate constant in the presence of calcium ions being high (almost 10^5 M^−1 s−^1) and the dissociation rate constant being low (approximately 5×10^−4 s−^1), C4BPβ (containing an unoccupied protein S binding site on the β-chain) is a highly specific and efficient ligand for free protein S and is able to specifically bind to free protein S in a solution containing both free protein S and PS:C4BP complexes.

B1: C4BPβ: species of C4b-binding protein containing the protein S binding β-chain, isolated from human plasma (protein)
chain 1: NCGPPPTLSFAAPMDITLTETRFKTGTTLKYTCLPGYVRSHSTQTLTCNSDGEWVYNTFCIYKRCRHPGELRNGQVEIKTDLSFGSQIEFSCSEGFFLIGSTTSRCEVQDRGVGWSHPLPQCEIVKCKPPPDIRNGRHSGEENFYAYGFSVTYSCDPRFSLLGHASISCTVENETIGVWRPSPPTCEKITCRKPDVSHGEMVSGFGPIYNYKDTIVFKCQKGFVLRGSSVIHCDADSKWNPSPPACEPNSCINLPDIPHASWETYPRPTKEDVYVVGTVLRYRCHPGYKPTTDEPTTVICQKNLRWTPYQGCEALCCPEPKLNNGEITQHRKSRPANHCVYFYGDEISFSCHETSRFSAICQGDGTWSPRTPSCGDICNFPPKIAHGHYKQSSSYSFFKEEIIYECDKGYILVGQAKLSCSYSHWSAPAPQCKALCRKPELVNGRLSVDKDQYVEPENVTIQCDSGYGVVGPQSITCSGNRTWYPEVPKCEWETPEGCEQVLTGKRLMQCLPNPEDVKMALEVYKLSLEIEQLELQRDSARQSTLDKEL
chain 2: SDAEHCPELPPVDNSIFVAKEVEGQILGTYVCIKGYHLVGKKTLFCNASKEWDNTTTECRLGHCPDPVLVNGEFSSSGPVNVSDKITFMCNDHYILKGSNRSQCLEDHTWAPPFPICKSRDCDPPGNPVHGYFEGNNFTLGSTISYYCEDRYYLVGVQEQQCVDGEWSSALPVCKLIQEAPKPECEKALLAFQESKNLCEAMENFMQQLKESGMTMEELKYSLELKKAELKAKLL
B1 was tested, and the “drop in free protein S” value [1] was 90%, the association rate constant ([2]; presence of calcium ions) was ~10^5 M^−1 s−^1 and the dissociation rate constant ([2]; presence of calcium ions) was “approximately 5×10^−4 s−^1”. For the same molecule, the Kd ([2]; presence of physiological calcium concentrations) was 100 pM.
